Legend:
[1] = target: GLP-1 receptor (Example 19, species not stated); assay: cell-based or functional assay
[2] = target: cyno glucagon receptor (cyno); assay: cell-based or functional assay

pEC50, cAMP accumulation, 0% HSA [1]: 11.6 -log M
pEC50, cAMP accumulation, 0.1% HSA [1]: 10.3 -log M
pEC50, cAMP accumulation, 4% HSA [1]: 9.24 -log M
cGCGR pEC50, cAMP accumulation [2]: < 9 -log M
Substance: semaglutide (peptide)
